# Results from patent US20110124556 (published 2011).
# Substitutions are numbered along the chain they refer to. Non-standard residues stand in square brackets, D forms with d. No end group written: not given here. Tic = O=C(O)[C@@H]1Cc2ccccc2CN1; Ac6c = NC1(C(=O)O)CCCCC1; βturn = not defined here
# B1: S326 (G33) (peptide)
# chain: GIISQSCPESFYDWFAGQVSDPWWCW
# B2: S122 (peptide)
# chain: HPTSKEIYAKLLK
# B3: S263 (D8B12) (peptide)
# chain: WLEQERAWIWCEIQGSGCRA
# B4: S177 (peptide)
# chain: EHWNTVDPFYFTLFEWLRESG
# B5: S571 (peptide)
# chain: SLEEEWAQIEEVWGRGSESFYDWFERQLG
# B6: S597 (peptide)
# chain: Ac-SLEEEWAQIECEVYGRGCPSESFYDWFERQL
# modifications: ends and bridges not checked
# B7: S524 (peptide)
# chain: HHHHHHKSLEEEWAQVECEVYGRGCPSGSLDESFYDWFERQLG
# B8: S574 (peptide)
# chain: SLEEEWAQIEAEVWGRGAPSESFYDWFERQLG
# B9: S554 (peptide)
# chain: B8 chain with A11C, W14Y, A18C
# B10: S301 (peptide)
# chain 1: XDWLQRNANFYDWFVAEL
# chain 2: XDWLQRNANFYDWFVAEL
# modifications: listing feature
# B11: S580 (peptide)
# chain 1: SLEEEWAQVECEVYGRGC-βturn
# chain 2: ESFYDWFERQLG
# modifications: not fully specified (bridges); printed as SLEEEWAQVECEVYGRGC-βturn-ESFYDWFERQLG; ends and bridges not checked; also: chain 1 continues via βturn into chain 2 (C-N fusion)
# B12: S510 (peptide)
# chain: SLEEEWAQVECEVYGRGCPSGGSGGSGLLDESFYHWFDRQLR
# B13: S527 (peptide)
# chain 1: H[Ac6c]CAQE[dW]GSEL
# chain 2: [Tic]QCSGSESFYDWFERQL
# modifications: not fully specified; printed as H-Acy-CAQEwGSEL-Tic-QCSGSESFYDWFERQL; ends and bridges not checked
# B14: S593 (peptide)
# chain: SIEEEWAQIKCDVWGRGCPSY
# B15: S392 (peptide)
# chain: FYDWFERQLG
# B16: S595 (peptide)
# chain: LEEEWAQIQREVWHSPASESFYDWFERQL
# B17: S273 (peptide)
# chain: FHENFYDWFVRQVSKKXXSDGFYNAIELLS
# modifications: not fully specified; listing feature
# B18: S537 (peptide)
# chain: SLEHEWAQVECEVYGRGCPSGSLDESFYDWFERQLG
# B19: S540 (peptide)
# chain: B18 chain with H4E, E10K
# B20: S542 (peptide)
# chain: B18 chain with H4E, D29H
# B21: S539 (printed S519) (peptide)
# chain: B18 chain with H4L
# B22: S541 (peptide)
# chain: B18 chain with H4E, Y14W
# B23: S538 (peptide)
# chain: B18 chain with H4Q
# B24: S456 (peptide)
# chain 1: GSLDESFYDWFERQLGKK
# chain 2: XKEWLDQEWAWVQCEVYGRGCPSEE
# modifications: not fully specified; listing feature
# B25: S442 (peptide)
# chain 1: ESFYDWFERQLGGGGK
# chain 2: AWVQCEVYGRGCPS
# B26: S560 (peptide)
# chain: SLEEEWAQIECEVWGRGCPSGSLDESFYDWFERQL
# B27: S548 (peptide)
# chain: SLEEEWAQVECEVWGRGCPS
# B28: S229 (peptide)
# chain 1: SDGFYNAIELLSX
# chain 2: KHLCVLEELFWGASLFGYCSGKKX
# modifications: not fully specified; listing feature
# B29: S569 (peptide)
# chain: SLEEEWAQIEEVWGRGPSESFYDWFERQLG
# B30: S549 (peptide)
# chain: SLEEEWAQVECEVYGRGCSGSLDESFYDWFERQLG
# B31: S107 (peptide)
# chain: FHENFYDWFVRAVSKK
# B32: S379 (peptide)
# chain 1: GSLDESFYDWFERQLGKKKX
# chain 2: GSLDESFYDWFERQLGKKKX
# modifications: not fully specified; listing feature
# B33: S564 (peptide)
# chain: SLEEEWAQIQCEVWGRCSESFYDWFERQL
# B34: S251 (peptide)
# chain: GRVDWLQRNANFYDWFV
# B35: S315 (peptide)
# chain: WFYDWFWE
# B36: S438 (peptide)
# chain 1: ESFYDWFERQLGGGGK
# chain 2: DQEWAWVQCEVYGRGCPS
# B37: S167 (peptide)
# chain: AFYDWFAKK
# B38: S360 (peptide)
# chain 1: XDWLQRNANFYDWFVAEL
# chain 2: XDWLQRNANFYDWFVAEL
# modifications: listing feature
# B39: S562 (peptide)
# chain: SIEEEWAQIKCDVWGRCSESFYDWFERQL
# B40: S113 (peptide)
# chain: AHENFYDWFVRQVSKK
# B41: S439 (peptide)
# chain 1: ESFYDWFERQLGGGGK
# chain 2: QEWAWVQCEVYGRGCPS
# B42: S534 (peptide)
# chain: SLEEEWAWVQCEVYGRGCPSESFYDWFERQL
# B43: S557 (peptide)
# chain: B42 chain with W8Q, V9I, Q10E
# modifications: not fully specified (N-terminus); ends and bridges not checked
# B44: S530 (peptide)
# chain: B42 chain with W8Q, Q10E
# B45: S443 (peptide)
# chain 1: ESFYDWFERQLGGGGK
# chain 2: WVQCEVYGRGCPS
# B46: S531 (peptide)
# chain: SLEEEWAQVECEVYGRGCPSFYDWFERQL
# B47: S550 (peptide)
# chain: GSLDESFYDWFERQLGXK
# modifications: listing feature
# B48: S220 (peptide)
# chain: FHENFADWFVRQVSKK
# B49: S570 (peptide)
# chain: SLEEEWAQIEEVWGRPSESFYDWFERQLG
# B50: S231 (peptide)
# chain 1: FHENFYDWFVRQVSKKGGGX
# chain 2: FHENFYDWFVRQVSKKGGGX
# modifications: listing feature
# B51: S246 (peptide)
# chain 1: ACAWPTYWNCGGGGX
# chain 2: FHENFYDWFVRQVSKKX
# modifications: not fully specified; listing feature
# B52: S243 (peptide)
# chain: NFYDWFVAELG
# B53: S121 (peptide)
# chain: NSFYEALRMLSSK
# B54: S368 (peptide)
# chain: RGTRSDPFYHKLSELLQGH
# B55: S259 (peptide)
# chain: EGWDFYSYFSGLLASVT
# B56: S596 (peptide)
# chain: SLEEEWAQIQHELYGPAESESFYDWFERQL
# B57: S118 (peptide)
# chain: SDGFYNAIELLS
# B58: S218 (peptide)
# chain 1: AFYDWFAKKX
# chain 2: AFYDWFAKKX
# modifications: listing feature
# B59: S453 (peptide)
# chain: GSLDESFYDWFERQLGKKKXXKEWLDQEWAWVQCEVYGRGCPSEE
# modifications: not fully specified (residues 19, 20, 21); printed as GSLDESFYDWFERQLGKKK-Ald-17-Ald-KEWLDQEWAWVQCEVYGRGCPSEE; cysteine pairing not given here; also: two peptides (1-19 and 22-45) joined by linker 17 between the Ald group on K19 and an N-terminal Ald on the second peptide
# Target: human insulin receptor (HIR) (human, UniProt P06213)
# Experiment: competition
row,Kd [nM],Binder
1,590,B1
2,93,B2
3,> 20000,B3
4,27000,B4
5,1.8,B5
6,0.0085,B6
7,0.011,B7
8,0.0092,B8
9,0.0064,B9
10,640,B10
11,0.012,B11
12,0.062,B12
13,2.4,B13
14,2.2,B14
15,38,B15
16,0.62,B16
17,15,B17
18,0.044,B18
19,0.013,B19
20,0.027,B20

row,Kd [nM],Binder
1,0.098,B21
2,0.0078,B22
3,0.038,B23
4,2.4,B24
5,160,B25
6,0.014,B26
7,4.1,B27
8,4.4,B28
9,0.15,B29
10,0.013,B30
11,1000,B31
12,56,B32
13,0.013,B33
14,56000,B34
15,68,B35
16,30,B36
17,> 2000,B37
18,990,B38
19,0.018,B39
20,590,B40

row,Kd [nM],Binder
1,46,B41
2,0.01,B42
3,0.02,B43
4,0.008,B44
5,170,B45
6,0.075,B46
7,40,B47
8,> 2000,B48
9,0.73,B49
10,270,B50
11,50,B51
12,2000,B52
13,31,B53
14,> 20000,B54
15,7700,B55
16,0.045,B56
17,24000,B57
18,11000,B58
19,0.57,B59
